Assay results taken from US20240352438A1, “MEANS AND METHODS FOR DETOXIFYING OCHRATOXIN A” (DSM Austria GmbH, priority 2021, published 2024).

Columns and labels:
[1] = Thermostability assay: residual OTA detoxification activity after 10 min incubation at 45-99° C. (T50); format: physicochemical; conditions: 0.1 mg/mL protein in 20 mM Tris-HCl pH 7.5, residual OTA detoxification activity relative to 4° C. reference aliquot
Description: Stability was determined in terms of thermostability. Notwithstanding, a person having skill in the art is aware that stability towards high temperature (e.g. more than 30° C.) often correlates with stability towards other non-standard conditions such as stability towards acidic or basic pH (e.g. below pH 6.5 or above pH 7.5, respectively), towards elevated salt concentrations, organic solvents or drying.
To determine the kinetic stability of the produced enzymes, thermostability assays were performed. To this end, purified protein samples were diluted to a protein concentration of 0.1 mg/mL in 20 mM Tris-HCl buffer pH 7.5 and aliquots were incubated in a thermocycler for 10 min at either 45, 55, 65, 75, 80, 85, 90, 95 or 99° C. After this incubation, the aliquots were stored at 4° C. until further analysis. A reference aliquot was stored at 4° C. throughout the incubation. Subsequently, all aliquots were assayed for residual OTA detoxification activity using the assay described in Example 3. Residual enzyme activities were calculated relative to the reference aliquot. The temperature range in which 50% of the initial activity was lost after the incubation (T50), in relation to the reference aliquot was determined.

[2] = OTA detoxification activity assay (specific activity, fluorescence reduction ex/em 390/450 nm); format: biochemical; conditions: for Specific OTA detoxification activities in U/g at pH 6.0 / Specific OTA detoxification activities in U/g at pH 7.5: 37° C., 200 ng/mL OTA, 100 mM sodium phosphate buffer
Outline: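 Recombinant enzyme preparation with 200 ng/mL OTA in 100 mM sodium phosphate, at pH 6.0 and pH 7.5, 37° C. Degradation followed as the fall in fluorescence at ex/em 390/450 nm. Specific activity taken from the initial linear slope; one unit degrades 1 μmol OTA per min at a starting OTA of […].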

Row | Molecule | T50 (temperature at which 50% of the initial activity was maintained) [1] | Specific OTA detoxification activities in U/g at pH 6.0 ([2]; pH 6.0) [U/g] | Specific OTA detoxification activities in U/g at pH 7.5 ([2]; pH 7.5) [U/g] | Specific OTA detoxification activities in % compared to the enzyme of SEQ ID NO: 2, pH 6.0 ([2]; pH 6.0, SEQ ID NO: 2 = 100%) [%] | Specific OTA detoxification activities in % compared to the enzyme of SEQ ID NO: 2, pH 7.5 ([2]; pH 7.5, SEQ ID NO: 2 = 100%) [%]
1 | 18 (protein, polypeptide 4) MPPMRTRTRILTASLALLAANAWAADAMPSTPHTVVLRAARMFDGASGKLVEHPQLTIVGNKIVRVAQDDKAAVPAGADVIDLGDATLLPGFIDAHVHLSGQSSDNWYGDFFDNMMRFPAEQALYGAWYARITLEAGFTSVRDVGSTDWIALGLRNAIDAGKVPGPRMLVSNYAIGSTGGHADQDPIPPQKLAPAGPLQGVCNGPDECRAAVRYQIKYGANVIKFMPSGGVLSLSDPVDAPELTQEEMNAVVGEAHAWGRKVAAHAHGDKAAKMAVAAGVDSIEHGSFLEDDTLRMMKAKGVYLVPTISAVMHVEEKIATFPPVIAEKGRAAAAHVRQTFRHAVQIGVPIALGTDAGVGAHGTNAREFRYMVDNGMAPAQALLAGTSNAARLLGTIDRVGTLEAGKLADVVAVPGNPVADITVTERPVFVMKDGVVVRRGAVR | 81-83 °C | 39.30 | 147.14 | – | –
2 | 2 (protein, polypeptide 2) MYSLAIRNGIVFDGEKFIGKTNIYVDGDKIVKITNERLDAKEEVNAEGYFVMPGLIDAHLHLTGIRGGSLLMGYLLDDPRTRLLRAANWARELLMAGFTTVRDCGEPNSIILRNAINEGIIPGPRIIAAGSPITQTFGHAELSHSLPLEWSIQLGFGEICDGVDECIKAARKVLRSGADFIKIMATGGVLSERDRPEWPQLTPEEMSAIVREAEKVGTYVAAHAHGDKGARIAVEAGVRTIEHGSLITEETVKLMAEKGVSLTPTLSIQELIYKYGKQMGIDPWGLEKIGQVREGVINSIKLARKYGVMILAGTDLGFKTGLDIDMGKNWVEVKLLVELGGLSSEEALRAATGNASKMLRLNTGIIREGYLADIVLINGNPLENINDIARVSTVIKGGKVTVENGKLI | >95 °C | 0.61 | 0.73 | – | –
3 | 39 (protein, exemplary polypeptide) MYSLAIRNGIVFDGEKFIGKTNIYVDGDKIVKITNERLDAKEEVNAEGYFVMPGLIDAHLHLTGIRGGSLLMGYLLDDPRTRLLRAANWARELLMAGFTTVRDCGEPNSIILRNAINEGIIPGPRIIAAGSPITQTFGHAELSHSLPLEWSIQLGFGEICDGVDECIKAARKVLRSGADFIKIMATGGVLSERDRPEWPQLTPEEMSAIVREAEKVGTYVAAHAHGDKGARIAVEAGVRTIEHGSLITEETVKLMAEKGVSLTPTLSAQELIYKYGKQMGIDPWGLEKIGQVREGVINSIKLARKYGVMILAGTDLGFKTGLDIDMGKNWVEVKLLVELGGLSSEEALRAATGNASKMLRLNTGIIREGYLADIVLINGNPLENINDIARVSTVIKGGKVTVENGKLI | >99 °C | – | – | 8.00 | 15.00
4 | 1 (protein, polypeptide 1) APAAPHTVVLRAARMFDGASGKLVDHPQLTIVGNKIVRIAQGDKAEVPAGAEVVDLGDATLLPGFIDAHVHLSGQSSDNWYGDFFDNMMRFPAEQALYGAYYARITLEAGFTSVRDVGSTDWVALGLRNAIDAGKVPGPRMLVSNYAVGSTGGHADQDPIPPHKLPLAGPLQGVCNGPEECRAAVRYQIKYGANVIKFMPSGGVLSLSDPVDAPELSQDEMNAVIGESHAWGRKVAAHAHGDKAAKMAVAAGVDSIEHGSFIEDDTLRAMKAKNVYLVPTISAIAHVEEKIGTFPPVIAEKGRAAAAHLRQTFRHAVQIGVPIALGTDAGVGAHGSNAREFRYMVENGLTPAQALLAGTANAARLLGTFDRVGTLEAGKLADVVAVPGNPIADITVTERPLFVMKDGVVVRRDAVR | 65-75 °C | 99.00 | 191.89 | – | –
5 | 369 (protein, exemplary polypeptide) MRTRTRILTASLALLAANAWAADAMPSTPHTVVLRAARMFDGASGKLVEHPQLTIVGNKIVRVAQDDKAAVPAGADVIDLGDATLLPGFIDAHVHLSGQSSDNWYGDFFDNMMRFPAEQALYGAWYARITLEAGFTSVRDVGSTDWIALGLRNAIDAGKVPGPRMLVSNYAIGSTGGHADQDPIPPQKLAPAGPLQGVCNGPDECRAAVRYQIKYGANVIKFMPSGGVLSLSDPVDAPELTQEEMNAVVGEAHAWGRKVAAHAHGDKAAKMAVAAGVDSIEHGSFLEDDTLRMMKAKGVYLVPTISAVMHVEEKIATFPPVIAEKGRAAAAHVRQTFRHAVQIGVPIALGTDAGVGAHGTNAREFRYMVDNGMAPAQALLAGTSNAARLLGTIDRVGTLEAGKLADVVAVPGNPVADITVTERPVFVMKDGVVVRRGAVR | 68 °C | 122.50 | 159.80 | – | –
6 | 21 (protein, polypeptide 7) MTTPTRILTAVLALLASNACAADATPSTPHTVVLRAARMFDGASGKLVERPQLTIVGNKIVRIAQADKADVPAGAEVIDLGDATLLPGFIDAHVHLSGQGSDNWYGDFFDNMMRFPAEQALYGAYYARITLEAGFTSVRDVGSTDWVALGLRNAIDAGKVPGPRMLVSNYAVGSTGGHADQDPIPPHKLPLAGPLQGVCNGPEECRAAVRYQIKYGANVIKFMPSGGVLSLSDPVDAPELSQDEMNAVIGESHAWGRKVAAHAHGDKAAKMAVAAGVDSIEHGSFIEDDTLRAMKAKGVYLVPTISAIAHVEEKIATFPPVIAEKGRAAAAHLRQTFRHAVQIGVPIALGTDAGVGAHGTNAREFRYMVENGLSPAQSLLAGTSNAARLLGTIDRVGTLEAGKLADVVAVPGNPIADITVTERPVFVMKDGVVVRRGAVR | 65-75 °C | 20.53 | 30.87 | – | –
7 | 368 (protein, exemplary polypeptide) MTTPTRILTAVLSLLAANACAADAAPATPHTVVLRAARMFDGASGKLVERPQLTIVGNKIVRIAQADKADVPAGAEVIDLGDATLLPGFIDAHVHLSGQGSDNWYGDFFDNMMRFPAEQALYGAYYARITLEAGFTSVRDVGSTDWVALGLRNAIDAGKVPGPRMLVSNYAVGSTGGHADQDPIPPHKLPLAGPLQGVCNGPEECRAAVRYQIKYGANVIKFMPSGGVLSLSDPVDAPELSQDEMNAVIGESHAWGRKVAAHAPGDKAAKMAVAAGVDSIEHGSFIEDDTLRAMKAKGVYLVPTISAIAHVEEKIATFPPVIAEKGRAAAAHLRQTFRHAVQIGVPIALGTDAGVGAHGTNAREFRYMVENGLSPAQSLLAGTSNAARLLGTIDRVGTLEAGKLADVVAVPGNPIADITVTERPVFVMKDGVVVRRGAVR | 68 °C | 3.70 | 15.10 | – | –
8 | 17 (protein, polypeptide 3) MTTRLRILTASLALLAANACAADAAPSTPHTVVLRAARMFDGASGKIVEHPQLTIVGNKIVRIAQGKEEDNRTGIPAGADVIDLGDATLLPGFIDAHVHLSGQSSDNWYGDFFDNMMRFPAEQALYGAYYARITLEAGFTSVRDVGSTDWIALGLRNAIDAGKVPGPRMLVSNYAVGSTGGHADQDPIPPQKLAPAGPLQGVCNGPEECRAAVRYQIKYGANVIKFMPSGGVLSLSDPVDAPELSQDEMNAVIGEAHAWGRKVAAHAHGDKAAKMAVTAGVDSIEHGSFLEDDTLRMMKAKGVYLVPTISAIAHVEEKIATFPSVIAEKGRAAASHSRQMFRHAVQIGVPIALGTDAGVGAHGTNAREFRYMVDNGLTPAQSLMAGTANAARLLGTFDRVGTLEAGKLADVVAVPGNPIADITVTERPVFVMKDGVVVRRGAVR | 65-75 °C | 11.65 | 28.44 | – | –
9 | 22 (protein, polypeptide 8) MQYDVAIKNGNVFTGTEFIGKMNIYISNGKISKVSKEDLNAKQEIDAKDMLVMPGLIDAHMHISGLKGGSLLKIMFEKPEYRALRATKWLEKLLLAGFTTVRDCGEPISISLKRAVNEGYIKGPKIIAAGKPITQTFGHGEFSHDIPLEFSISLGFSEICDGTESCIHAARKVLRDGSDFIKIFATGGVLSQRDRPDMPQLSFDEIRAIVNEAEKAGTYVAAHAHGDKGARIAIEAGIKTLEHGSLLKEDTLKLMLEKNISLTPTLTITEIIYKYGKTIGVDEWGLEKIVEVRENLHKVLRKAKELGITIITGTDMGFETGLEDYDIGKNWTEILLLTEVGGLSNEEALRAATYNSAKALGLNSGLIDEGKDADIIVIDGNPLENIKDVSKVVHVIKQGKLEVLDGKIINNY | >95 °C | 0.66 | 0.79 | – | –
